Laboratory results taken from publication PMC3050627.

Target: His-MAFB (UniProt Q9Y5Q3 1-323)
Test: EMSA

Chain of His-MAFB (Q9Y5Q3 whole entry): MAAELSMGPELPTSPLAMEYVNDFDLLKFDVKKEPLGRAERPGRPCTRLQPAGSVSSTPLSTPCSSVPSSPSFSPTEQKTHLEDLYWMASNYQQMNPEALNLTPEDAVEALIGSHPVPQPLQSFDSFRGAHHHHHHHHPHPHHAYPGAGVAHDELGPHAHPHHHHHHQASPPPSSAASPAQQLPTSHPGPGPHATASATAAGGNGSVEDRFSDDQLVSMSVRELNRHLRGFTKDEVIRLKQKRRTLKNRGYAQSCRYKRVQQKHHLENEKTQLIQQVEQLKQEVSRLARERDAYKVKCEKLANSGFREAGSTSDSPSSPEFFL

B1: P31 (PRDIII-PRDI) (dsDNA)
DNA 1: GAAAACTGAAAGGGAGAAGTGAAAGTG
DNA 2: CACTTTCACTTCTCCCTTTCAGTTTTC
- binding result: no binding

B2: MARE (dsDNA)
DNA 1: CATTTCTGCTGACTCAGCAACTTTA
DNA 2: TAAAGTTGCTGAGTCAGCAGAAATG
- binding result: binds
